Experiment [1] deals with T1, human TNFR2 (human, UniProt P20333 23-461).
T1 construct: expressed on the surface of CHO cells; also called HuTNFR2; TNFRSF1B
T1 sequence: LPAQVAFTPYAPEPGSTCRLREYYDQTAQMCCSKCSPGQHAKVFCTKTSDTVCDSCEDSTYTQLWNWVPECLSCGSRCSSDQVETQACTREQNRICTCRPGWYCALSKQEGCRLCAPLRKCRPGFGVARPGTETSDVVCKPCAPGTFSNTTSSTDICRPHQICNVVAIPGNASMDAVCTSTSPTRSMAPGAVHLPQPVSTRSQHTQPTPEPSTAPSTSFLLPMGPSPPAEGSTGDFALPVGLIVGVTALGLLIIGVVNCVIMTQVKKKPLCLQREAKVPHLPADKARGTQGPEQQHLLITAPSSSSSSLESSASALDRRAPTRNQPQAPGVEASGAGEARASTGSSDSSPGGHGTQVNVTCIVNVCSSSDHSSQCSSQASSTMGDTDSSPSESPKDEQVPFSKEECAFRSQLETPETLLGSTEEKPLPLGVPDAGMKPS
Kind of experiment: binding to human TNFR2 CHO cells, IgG format.

In experiment [2] the target is T2, human TNFR2 (human, UniProt P20333 23-461).
T2 construct: Human TNFR2 over-expressed on CHO cells, full length on transduced NF-KB-GFP Jurkat cells, or native on human primary T cells; also called Hu TNFR2; TNFRSF1B
T2 sequence: T1 sequence
Kind of experiment: binding to CHO cells over-expressing human TNFR2.

The target in experiment [3] is T2, human TNFR2. In words: binding to human TNFR2 CHO cells (repeats Table 1).
In experiment [4] the target is T3, cynomolgus monkey TNFR2 (cynomolgus monkey, UniProt P20333 23-461 (human entry)).
T3 construct: Cyno TNFR2 over-expressed on CHO cells or native on cyno primary cells; also called Cy TNFR2; cyno TNFR2
T3 chain: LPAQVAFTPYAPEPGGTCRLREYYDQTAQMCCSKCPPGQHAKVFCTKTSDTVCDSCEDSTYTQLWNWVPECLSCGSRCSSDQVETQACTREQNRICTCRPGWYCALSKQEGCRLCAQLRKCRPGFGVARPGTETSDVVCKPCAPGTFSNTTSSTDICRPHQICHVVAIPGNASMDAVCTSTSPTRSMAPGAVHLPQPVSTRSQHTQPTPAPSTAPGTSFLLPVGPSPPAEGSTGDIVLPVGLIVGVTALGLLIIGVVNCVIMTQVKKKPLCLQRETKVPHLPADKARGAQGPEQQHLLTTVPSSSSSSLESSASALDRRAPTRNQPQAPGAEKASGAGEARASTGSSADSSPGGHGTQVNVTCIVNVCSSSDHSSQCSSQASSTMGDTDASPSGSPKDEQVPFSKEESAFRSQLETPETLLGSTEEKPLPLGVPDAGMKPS
In words: binding to CHO cells over-expressing cyno TNFR2.

Experiment [5] has as its target T2, human TNFR2. Kind of experiment: binding to human TNFR2 CHO cells.
In experiment [6] the target is T2, human TNFR2. In words: binding to human TNFR2 CHO cells. The source holds these as a separate data set.
In experiment [7] the target is T3, cynomolgus monkey TNFR2. In words: binding to cyno TNFR2 CHO cells (repeats Table 1).
For experiment [8], the target named is T2, human TNFR2. Kind of experiment: cell-based or functional assay.
The target in experiment [9] is T3, cynomolgus monkey TNFR2. Kind of experiment: cell-based or functional assay.
For experiment [10], the target named is T4, biotinylated cyno TNFR2 (cynomolgus monkey, UniProt P20333 23-257 (human entry), limits assumed, biotinylated).
T4 construct: Soluble biotinylated protein captured on a streptavidin chip for SPR; also called CyTNFR2
T4 chain: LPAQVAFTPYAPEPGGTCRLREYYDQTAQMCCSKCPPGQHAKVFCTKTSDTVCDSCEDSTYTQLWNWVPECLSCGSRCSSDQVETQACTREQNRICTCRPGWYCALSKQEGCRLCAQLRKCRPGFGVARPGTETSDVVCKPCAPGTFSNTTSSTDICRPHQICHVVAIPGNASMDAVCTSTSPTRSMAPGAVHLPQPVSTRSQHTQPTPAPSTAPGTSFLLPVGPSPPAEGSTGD
Kind of experiment: SPR (BIAcore), biotinylated TNFR2 captured on streptavidin chip, antibody as analyte (apparent affinity). As to the method: (§1) Increased avidity was confirmed by Surface Plasmon Resonance (SPR) using a BIAcore. Briefly, biotinylated human- or cyno-TNFR2 was captured on the surface of a streptavidin chip for 60 seconds at a flow rate of […]. […] The dissociation phase was then initiated with running buffer (HBS-EP+) injected for 600 seconds at […]. Data were analyzed using the Biacore Evaluation Software.

The target of experiment [11] is T5, biotinylated human TNFR2 (human, UniProt P20333 23-257, biotinylated).
T5 construct: Soluble biotinylated protein captured on a streptavidin chip for SPR; also called HuTNFR2
T5 sequence: T4 chain with G16S, P36S, Q117P, H164N, A210E, G216S, V223M
Described as above. As to the method: as §1

Experiment [12] addresses T2, human TNFR2. In words: cell-based or functional assay. The source holds these as a separate data set.
Experiment [13] deals with T2, human TNFR2. In words: cell-based or functional assay. The source holds these as a separate data set.
Experiment [14] has as its target T3, cynomolgus monkey TNFR2. In words: cell-based or functional assay.
The target in experiment [15] is T2, human TNFR2. Kind of experiment: cell-based or functional assay. The source holds these as a separate data set.

Changes are numbered by the printed parent chain.

B1: GBT-TNFR2-1765 (antibody, human IgG2, kappa, V domains shown)
VH: QVQLVQSGAEVKKPGASVKVSCKVSGFSFPSSGVDWVRQAPGQGLEWLGVTWGVGSTHYNQKFQGRVTITKDTSKSTVYMELSSLRSEDTAVYYCASGEWDEGFVYWGQGTLVTVSS
VL: DIQLTQSPSFLSASVGDRVTITCKASQNVGTAVAWYQQKPGKAPKLLIYAASTLQSGVPSRFSGSGSGTEFTLTISSLQPEDFATYYCQQYSSYPLTFGGGTKVEIKR
For orientation: EC50 means the concentration at which the effect is half-maximal. Turning to B1, in experiment [1], it took 0.67 nM to reach a half-maximal effect (EC50).

B2: GBT-TNFR2-854 (parental) (antibody, human IgG2, kappa, V domains shown)
VH: QVQLKESGPGLVAPSQSLSITCTVSGFSFPSSGVDWVRQSPGKGLEWLGVTWGVGSTHYNSALKSRLSISKDNSKSQVFLKMNSLQTEDTAIYYCASGEWDEGFVYWGQGTLVTVSA
VL: DIVMTQSQKFMSTTVGDRVSITCKASQNVGTAVAWYQQKPGQSPKLLIYSASNRYTGVPDRFTGSGSGTDFTLTISNMQSEDLADYFCQQYSSYPLTFGGGTKLEIKR
notes: Chimeric mouse V / human IgG2 effector-null, kappa; same hybridoma clone as IgG1 825
By koff is commonly meant the first-order rate constant of dissociation. One may read the kon as the second-order rate constant of association. B2: the concentration for a half-maximal effect (EC50) was found to be 0.106 µg/mL in [2]; 0.106 µg/mL in experiment [3]; 0.13 µg/mL in experiment [4]; 1.13 nM in experiment [5]; 1.13 nM in experiment [6]; 0.13 µg/mL in experiment [7]. Also, the “EC50 (HuPBMC)” value in [8] was found to be 1.4 nM. The “Jurkat EC50” value in experiment [8] was 1.74 µg/mL. Besides, the “EC50 (CyPBMC)” value in experiment [9] was 15 nM. Moreover, the values for the Kd in [10] and in experiment [11] were 0.89 nM and 0.11 nM, respectively. The koff turned out to be 0.00996 s⁻¹ in [10] and 0.00125 s⁻¹ in experiment [11]. Also, the results for the kon in [10] and in [11] were 1.12e+07 M⁻¹ s⁻¹ and 1.13e+07 M⁻¹ s⁻¹, respectively. Also, the “EC50 Jurkat” value in [12] amounted to 0.526 µg/mL. The “EC50 HuPBMC (ICAM-1 up-regulation)” value in experiment [13] was determined as 1.4 µg/mL. For the same molecule, in experiment [14], the “EC50 CyPBMC (CD25+/Ki67+ of CD4+ cells)” value stood at 27.2 µg/mL. Further, the “Jurkat (ng/ml), EC50 in NF-KB-GFP reporter assay” value in experiment [15] was determined as 711 ng/mL.

Source of the values: patent US20230406951A1 (Pfizer, published 2023).
